Here are results for two molecules from patent US7285703B2, “Plant like starches and the method of making them in hosts” (BASF Plant Science GmbH, priority 1998, dated 2007).

Substrate in series [1]: Nc1ncnc2c1ncn2[C@@H]1O[C@H](COP(=O)(O)OP(=O)(O)O[C@H]2O[C@H](CO)[C@@H](O)[C@H](O)[C@H]2O)[C@@H](O)[C@H]1O
Description: ADPGlc kinetics of starch synthase SSIIa-1. The following applies: other: amylopectin as primer, −citrate, 27° C. It counts as biochemical, maize. The text has this: FIG. 59. SSIIa-1 and SSIIa-2 construct diagram. Two forms of SSIIa were constructed in the pET expression system. pExs3c encodes SSIIa-1, the putative full length maize SSIIa which has the N-terminal sequence AEAEAGGK (SEQ ID NO:68). […] A depiction of the waxy gene, encoding GBSS which has the N-terminal sequence ASAGMNVV (SEQ ID NO:67), is also included for comparison. The amino acid motif KTGGL (SEQ ID NO:10), the putative binding site for ADPGlc, is indicated by the triangles. The KTGGL (SEQ ID NO:10) motif is located 18 amino acids from the N-terminus in GBSS, while the motif is 194 amino acids from the N-terminus in maize SSIIa.
5 mL of supernatant were used to assay STS and SBE activities as previously described (Preiss) with minor modification. […] […] The unincorporated [^14C]-ADPGlc was separated with Dowex anion exchange column (200-400 mesh, Sigma Chemical Co.). One unit of activity is defined as 1 nmol Glc incorporated into the a-glucan per min at 25° C. SBE activity was determined by phosphorylase stimulation assay. One unit of activity is defined as 1 mmol Glc incorporated into the a-glucan per min at. 30° C. […]

Another series has as its system maize starch synthases. Description: Expression of maize starch synthases in Escherichia coli BL21 (DE3): specific activity. The format is biochemical. The following applies: 25° C., 5 mg/mL glycogen as primer.

B1: maize starch synthase SSIIa-1, putative full length SSIIa (669 amino acids), N-terminus AEAEAGGK (SEQ ID NO:68) (Zea mays) (protein)
chain: AEAEAGGKDAPPERSGDAARLPRARRNAVSKRRDPLQPVGRYGSATGNTARTGAASCQNAALADVEIVEIKSIVAAPPTSIVKFPGRGLQDDPSLWDIAPETVLPAPKPLHESPAVDGDSNGIAPPTVEPLVQEATWDFKKYIGFDEPDEAKDDSRVGADDAGSFEHYGTMILGLCGENVMNVIVVAAECSPWCKTGGLGDVVGALPKALARRGHRVMVVVPRYGDYVEAFDMGIRKYYKAAGQDLEVNYFHAFIDGVDFVFIDASFRHRQDDIYGGSRQEIMKRMILFCKVAVEVPWHVPCGGVCYGDGNLVFIAMNWHTALLPVYLKAYYRDHGLMQYTRSVLVIHNIGHQGRGPVHEFPYMDLLNTNLQHFELYDPVGGEHANIFAACVLKMADRVVTVSRGYLWELKTVEGGWGLHDIIRSNDWKINGIRERIDHQEWNPKVDVHLRSDGYTNYSLETLDAGKRQCKAALQRDVGLEVRDDVPLLGFIGRLDGQKGVDIIGDAMPWIAGQDVQLVMLGTGPPDLERMLQHLEREHPNKVRGWVGFSVLMVHRITPGASVLVMPSRFAGGLNQLYAMAYGTVPVVHAVGGLRDTVAPFDPFGDAGLGWTFDRAEANKLIEVLSHCLDTYRNYEESWKSLQARGMSQNLSWDHAAELYEDVLVKYQW
As a reminder, the Km is the concentration of substrate that gives half-maximal velocity. Regarding B1, the Km in series [1] amounted to 460 ± 60 µM.

B2: pEXS-wx: maize GBSS (waxy), N-terminus ASAGMNVVFV, expressed from this plasmid in E. coli BL21 (DE3) (protein, UniProt P04713 73-605, looked up)
Granule-bound starch synthase …: ASAGMNVVFVGAEMAPWSKTGGLGDVLGGLPPAMAANGHRVMVVSPRYDQYKDAWDTSVVSEIKMGDGYETVRFFHCYKRGVDRVFVDHPLFLERVWGKTEEKIYGPVAGTDYRDNQLRFSLLCQAALEAPRILSLNNNPYFSGPYGEDVVFVCNDWHTGPLSCYLKSNYQSHGIYRDAKTAFCIHNISYQGRFAFSDYPELNLPERFKSSFDFIDGYEKPVEGRKINWMKAGILEADRVLTVSPYYAEELISGIARGCELDNIMRLTGITGIVNGMDVSEWDPSRDKYIAVKYDVSTAVEAKALNKEALQAEVGLPVDRNIPLVAFIGRLEEQKGPDVMAAAIPQLMEMVEDVQIVLLGTGKKKFERMLMSAEEKFPGKVRAVVKFNAALAHHIMAGADVLAVTSRFEPCGLIQLQGMRYGTPCACASTGGLVDTIIEGKTGFHMGRLSVDCNVVEPADVKKVATTLQRAIKVVGTPAYEEMVRNCMIQDLSWKGPAKNWENVLLSLGVAGGEPGVEGEEIAPLAKENVAAP
modifications: expressed in E. coli
B2: the “Specific Activities” value in the series on maize starch synthases is listed as 0.033 units/mg Protein.
